One molecule from EP1169642B1 (THE GOVERNMENT OF THE UNITED STATES OF AMERICA, as …, dated 2006) can be followed below.

The experiment concerns the target T1, purified human complement Factor H (human, UniProt P08603 19-1231).
T1 construct: also called fH
Briefly: steady state tryptophan fluorescence titration of Factor H with BSP.

T1 sequence (P08603 19-1231 limits assumed): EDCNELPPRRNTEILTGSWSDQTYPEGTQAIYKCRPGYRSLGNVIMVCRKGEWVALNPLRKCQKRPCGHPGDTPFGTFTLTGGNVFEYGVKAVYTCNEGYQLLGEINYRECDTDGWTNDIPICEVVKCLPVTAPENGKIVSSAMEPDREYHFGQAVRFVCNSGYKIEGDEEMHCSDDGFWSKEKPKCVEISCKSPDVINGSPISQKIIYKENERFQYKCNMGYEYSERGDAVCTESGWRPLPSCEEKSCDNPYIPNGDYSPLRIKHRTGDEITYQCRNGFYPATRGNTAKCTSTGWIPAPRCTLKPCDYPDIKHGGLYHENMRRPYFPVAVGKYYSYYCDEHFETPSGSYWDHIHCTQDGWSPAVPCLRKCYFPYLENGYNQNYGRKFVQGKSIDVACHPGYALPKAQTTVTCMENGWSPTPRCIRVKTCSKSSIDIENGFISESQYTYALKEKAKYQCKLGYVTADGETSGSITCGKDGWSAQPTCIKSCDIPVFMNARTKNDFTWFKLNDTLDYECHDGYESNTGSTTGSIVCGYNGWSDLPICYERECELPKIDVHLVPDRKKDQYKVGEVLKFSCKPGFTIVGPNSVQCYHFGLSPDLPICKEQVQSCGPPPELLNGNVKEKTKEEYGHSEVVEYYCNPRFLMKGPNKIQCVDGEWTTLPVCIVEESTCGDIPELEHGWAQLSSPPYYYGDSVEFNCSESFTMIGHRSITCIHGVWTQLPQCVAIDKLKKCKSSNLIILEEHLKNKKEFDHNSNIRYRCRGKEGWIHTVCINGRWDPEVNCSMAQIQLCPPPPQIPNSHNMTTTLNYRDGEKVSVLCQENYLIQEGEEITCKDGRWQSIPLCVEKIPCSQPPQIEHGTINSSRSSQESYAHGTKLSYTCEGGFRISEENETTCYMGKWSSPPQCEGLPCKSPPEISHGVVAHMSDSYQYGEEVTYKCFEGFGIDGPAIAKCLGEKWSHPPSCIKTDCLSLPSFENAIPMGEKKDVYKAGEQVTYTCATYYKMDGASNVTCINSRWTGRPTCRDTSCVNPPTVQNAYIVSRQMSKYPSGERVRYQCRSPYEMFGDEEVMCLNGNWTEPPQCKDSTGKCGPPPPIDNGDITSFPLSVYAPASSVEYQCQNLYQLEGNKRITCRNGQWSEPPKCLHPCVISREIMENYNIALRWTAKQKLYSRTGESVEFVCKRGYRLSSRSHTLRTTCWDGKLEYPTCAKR

B1: human bone sialoprotein (BSP) (ligand)
chain: FSMKNLHRRVKIEDSEENGVFKYRPRYYLYKHAYFYPHLKRFPVQGSSDSSEENGDDSSEEEEEEEETSNEGENNEESNEDEDSEAENTTLSATTLGYGEDATPGTGYTGLAAIQLPKKAGDITNKATKEKESDEEEEEEEEGNENEESEAEVDENEQGINGTSTNSTEAENGNGSSGGDNGEEGEEESVTGANAEGTTETGGQGKGTSKTTTSPNGGFEPTTPPQVYRTTSPPFGKTTTVEYEGEYEYTGVNEYDNGYEIYESENGEPRGDNYRAYEDEYSYFKGQGYDGYDGQNYYHHQ
modifications: glycosylated, phosphorylated and tyrosine-sulfated glycoprotein (sites not given)
notes: Natural BSP of human serum is entered under the same molecule; also called rBSP; recombinant BSP
Broadly, the Kd is the equilibrium constant for the complex coming apart. On to B1, for which the Kd is at most 1 nM and the “stoichiometry (BSP:Factor H)” value worked out at 1 molar ratio.
